Reference: the supplement of paper PMC9112550, “Optimization of the antimicrobial peptide Bac7 by deep mutational scanning” (BMC Biology, 2022)

Tested on: Escherichia coli TOP10
Experiment: shrunken log2 fold change of peptide-encoding DNA abundance (4.5 h post-induction vs induction); higher = less antimicrobial activity (less host growth inhibition)
Details: time post-induction: 4.5 h; library: site-saturation at positions 5, 18, 19, 20
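Note: peptides expressed intracellularly from a pBAD plasmid library in pooled LB shake-flask culture, induced with 0.3% L-arabinose, DNA abundance read by NGS, three biological replicates, DESeq2 with apeglm shrinkage.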

| Sequence | shrunken log2 fold change |
| --- | --- |
| RRIRWRPPRLPRPRPRPLIDPRP | 0.00313 |
| RRIRWRPPRLPRPRPRPLIRPRP | -0.117 |
| RRIRWRPPRLPRPRPRPLKIPRP | -0.195 |
| RRIRWRPPRLPRPRPRPLLIPRP | 0.0213 |
| RRIRWRPPRLPRPRPRPLQFPRP | 0.0403 |
| RRIRWRPPRLPRPRPRPLQHPRP | 0.394 |
| RRIRWRPPRLPRPRPRPLRQPRP | 0.539 |
| RRIRWRPPRLPRPRPRPLRSPRP | 0.884 |
| RRIRWRPPRLPRPRPRPLRVPRP | 0.874 |
| RRIRWRPPRLPRPRPRPLRWPRP | 1.08 |
| RRIRWRPPRLPRPRPRPLSAPRP | 0.553 |
| RRIRWRPPRLPRPRPRPLSGPRP | 0.34 |
| RRIRWRPPRLPRPRPRPLSVPRP | 0.0836 |
| RRIRWRPPRLPRPRPRPLTGPRP | -0.396 |
| RRIRWRPPRLPRPRPRPLTTPRP | 0.235 |
| RRIRWRPPRLPRPRPRPLVCPRP | 0.476 |
| RRIRWRPPRLPRPRPRPLVDPRP | 0.0816 |
| RRIRWRPPRLPRPRPRPLVHPRP | -0.11 |
| RRIRWRPPRLPRPRPRPLVIPRP | -0.0698 |
| RRIRWRPPRLPRPRPRPLWTPRP | 0.0621 |
| RRIRWRPPRLPRPRPRPLYDPRP | -0.0701 |
| RRIRWRPPRLPRPRPRPMDKPRP | -0.194 |
| RRIRWRPPRLPRPRPRPMDQPRP | -0.131 |
| RRIRWRPPRLPRPRPRPMFQPRP | -0.241 |
| RRIRWRPPRLPRPRPRPMFTPRP | -0.0283 |

| Sequence | shrunken log2 fold change |
| --- | --- |
| RRIRWRPPRLPRPRPRPMHCPRP | -0.0635 |
| RRIRWRPPRLPRPRPRPMHSPRP | -0.0572 |
| RRIRWRPPRLPRPRPRPMKAPRP | 0.294 |
| RRIRWRPPRLPRPRPRPMMDPRP | 0.000475 |
| RRIRWRPPRLPRPRPRPMNVPRP | 0.0542 |
| RRIRWRPPRLPRPRPRPMNWPRP | 0.0484 |
| RRIRWRPPRLPRPRPRPMPKPRP | 0.115 |
| RRIRWRPPRLPRPRPRPMSEPRP | 0.0832 |
| RRIRWRPPRLPRPRPRPMSWPRP | 0.0971 |
| RRIRWRPPRLPRPRPRPMWKPRP | -0.0109 |
| RRIRWRPPRLPRPRPRPNACPRP | 0.478 |
| RRIRWRPPRLPRPRPRPNATPRP | 0.736 |
| RRIRWRPPRLPRPRPRPNDKPRP | -0.291 |
| RRIRWRPPRLPRPRPRPNEDPRP | 0.211 |
| RRIRWRPPRLPRPRPRPNFKPRP | -0.264 |
| RRIRWRPPRLPRPRPRPNFRPRP | 0.298 |
| RRIRWRPPRLPRPRPRPNFTPRP | -0.0319 |
| RRIRWRPPRLPRPRPRPNFWPRP | 0.224 |
| RRIRWRPPRLPRPRPRPNGPPRP | -0.0107 |
| RRIRWRPPRLPRPRPRPNHDPRP | -0.193 |
| RRIRWRPPRLPRPRPRPNHQPRP | -0.342 |
| RRIRWRPPRLPRPRPRPNISPRP | -0.279 |
| RRIRWRPPRLPRPRPRPNKVPRP | -0.129 |
| RRIRWRPPRLPRPRPRPNNEPRP | -0.0931 |
| RRIRWRPPRLPRPRPRPNNKPRP | -0.392 |

| Sequence | shrunken log2 fold change |
| --- | --- |
| RRIRWRPPRLPRPRPRPNNMPRP | -0.345 |
| RRIRWRPPRLPRPRPRPNQAPRP | -0.0796 |
| RRIRWRPPRLPRPRPRPNRCPRP | 0.0312 |
| RRIRWRPPRLPRPRPRPNRGPRP | 0.172 |
| RRIRWRPPRLPRPRPRPNSSPRP | -0.0636 |
| RRIRWRPPRLPRPRPRPNSWPRP | -0.0727 |
| RRIRWRPPRLPRPRPRPNTEPRP | -0.324 |
| RRIRWRPPRLPRPRPRPNTHPRP | -0.231 |
| RRIRWRPPRLPRPRPRPNTYPRP | 0.0764 |
| RRIRWRPPRLPRPRPRPNVPPRP | -0.144 |
| RRIRWRPPRLPRPRPRPNWMPRP | -0.11 |
| RRIRWRPPRLPRPRPRPNWSPRP | -0.0695 |
| RRIRWRPPRLPRPRPRPNYAPRP | -0.0925 |
| RRIRWRPPRLPRPRPRPPAFPRP | 0.204 |
| RRIRWRPPRLPRPRPRPPAQPRP | 0.54 |
| RRIRWRPPRLPRPRPRPPARPRP | 0.726 |
| RRIRWRPPRLPRPRPRPPCTPRP | 0.124 |
| RRIRWRPPRLPRPRPRPPCVPRP | 0.301 |
| RRIRWRPPRLPRPRPRPPDIPRP | 0.238 |
| RRIRWRPPRLPRPRPRPPEQPRP | 0.153 |
| RRIRWRPPRLPRPRPRPPGMPRP | 0.759 |
| RRIRWRPPRLPRPRPRPPGQPRP | 0.123 |
| RRIRWRPPRLPRPRPRPPHAPRP | 1.04 |
| RRIRWRPPRLPRPRPRPPHKPRP | 0.339 |
| RRIRWRPPRLPRPRPRPPKEPRP | 0.433 |

| Sequence | shrunken log2 fold change |
| --- | --- |
| RRIRWRPPRLPRPRPRPPKPPRP | 0.648 |
| RRIRWRPPRLPRPRPRPPKTPRP | 0.199 |
| RRIRWRPPRLPRPRPRPPLEPRP | 0.474 |
| RRIRWRPPRLPRPRPRPPLNPRP | 0.188 |
| RRIRWRPPRLPRPRPRPPLWPRP | 0.558 |
| RRIRWRPPRLPRPRPRPPNHPRP | 0.0941 |
| RRIRWRPPRLPRPRPRPPNIPRP | -0.446 |
| RRIRWRPPRLPRPRPRPPNVPRP | 0.0153 |
| RRIRWRPPRLPRPRPRPPPPPRP | 0.958 |
| RRIRWRPPRLPRPRPRPPQQPRP | 0.163 |
| RRIRWRPPRLPRPRPRPPRHPRP | 0.608 |
| RRIRWRPPRLPRPRPRPPRIPRP | 0.245 |
| RRIRWRPPRLPRPRPRPPSLPRP | 0.115 |
| RRIRWRPPRLPRPRPRPPSSPRP | 0.778 |
| RRIRWRPPRLPRPRPRPPTFPRP | -0.0697 |
| RRIRWRPPRLPRPRPRPPTVPRP | 0.144 |
| RRIRWRPPRLPRPRPRPPTYPRP | -0.104 |
| RRIRWRPPRLPRPRPRPPVAPRP | 0.983 |
| RRIRWRPPRLPRPRPRPPVMPRP | 0.00935 |
| RRIRWRPPRLPRPRPRPPWAPRP | 0.452 |
| RRIRWRPPRLPRPRPRPPWDPRP | 0.131 |
| RRIRWRPPRLPRPRPRPPWVPRP | -0.00745 |
| RRIRWRPPRLPRPRPRPPYSPRP | -0.262 |
| RRIRWRPPRLPRPRPRPQAGPRP | 0.335 |
| RRIRWRPPRLPRPRPRPQAWPRP | 0.23 |

| Sequence | shrunken log2 fold change |
| --- | --- |
| RRIRWRPPRLPRPRPRPQCDPRP | 0.462 |
| RRIRWRPPRLPRPRPRPQDIPRP | -0.352 |
| RRIRWRPPRLPRPRPRPQEEPRP | 0.0983 |
| RRIRWRPPRLPRPRPRPQFAPRP | 0.189 |
| RRIRWRPPRLPRPRPRPQFEPRP | 1.87 |
| RRIRWRPPRLPRPRPRPQGPPRP | 1.32 |
| RRIRWRPPRLPRPRPRPQGWPRP | 0.0714 |
| RRIRWRPPRLPRPRPRPQHGPRP | -0.164 |
| RRIRWRPPRLPRPRPRPQKEPRP | 0.0282 |
| RRIRWRPPRLPRPRPRPQLFPRP | 0.0645 |
| RRIRWRPPRLPRPRPRPQLIPRP | -0.153 |
| RRIRWRPPRLPRPRPRPQLNPRP | 0.679 |
| RRIRWRPPRLPRPRPRPQMMPRP | -0.0594 |
| RRIRWRPPRLPRPRPRPQMSPRP | -0.149 |
| RRIRWRPPRLPRPRPRPQMVPRP | 0.0853 |
| RRIRWRPPRLPRPRPRPQNSPRP | 0.0838 |
| RRIRWRPPRLPRPRPRPQPAPRP | 0.812 |
| RRIRWRPPRLPRPRPRPQPEPRP | 0.139 |
| RRIRWRPPRLPRPRPRPQSMPRP | 0.0679 |
| RRIRWRPPRLPRPRPRPQTCPRP | 0.108 |
| RRIRWRPPRLPRPRPRPQVFPRP | -0.0323 |
| RRIRWRPPRLPRPRPRPQVSPRP | -0.0705 |
| RRIRWRPPRLPRPRPRPQYRPRP | 0.00862 |
| RRIRWRPPRLPRPRPRPRAFPRP | 0.57 |
| RRIRWRPPRLPRPRPRPRAPPRP | 0.84 |

| Sequence | shrunken log2 fold change |
| --- | --- |
| RRIRWRPPRLPRPRPRPRAQPRP | 0.56 |
| RRIRWRPPRLPRPRPRPRAYPRP | 0.224 |
| RRIRWRPPRLPRPRPRPRCPPRP | 0.264 |
| RRIRWRPPRLPRPRPRPRCWPRP | 0.616 |
| RRIRWRPPRLPRPRPRPREKPRP | 1.16 |
| RRIRWRPPRLPRPRPRPRENPRP | 0.707 |
| RRIRWRPPRLPRPRPRPRFAPRP | 0.695 |
| RRIRWRPPRLPRPRPRPRFEPRP | 0.225 |
| RRIRWRPPRLPRPRPRPRFYPRP | -0.00432 |
| RRIRWRPPRLPRPRPRPRGFPRP | 0.25 |
| RRIRWRPPRLPRPRPRPRHMPRP | -0.139 |
| RRIRWRPPRLPRPRPRPRHVPRP | -0.0116 |
| RRIRWRPPRLPRPRPRPRKGPRP | 0.612 |
| RRIRWRPPRLPRPRPRPRLTPRP | 0.307 |
| RRIRWRPPRLPRPRPRPRLWPRP | 0.414 |
| RRIRWRPPRLPRPRPRPRNVPRP | -0.0411 |
| RRIRWRPPRLPRPRPRPRPGPRP | 0.772 |
| RRIRWRPPRLPRPRPRPRQMPRP | 0.0196 |
| RRIRWRPPRLPRPRPRPRQWPRP | 0.0802 |
| RRIRWRPPRLPRPRPRPRRSPRP | 0.492 |
| RRIRWRPPRLPRPRPRPRTFPRP | 0.3 |
| RRIRWRPPRLPRPRPRPRTTPRP | 0.755 |
| RRIRWRPPRLPRPRPRPRVTPRP | 1.75 |
| RRIRWRPPRLPRPRPRPRYMPRP | -0.139 |
| RRIRWRPPRLPRPRPRPRYRPRP | 0.124 |
